Reference: the DeepSol protein solubility set

Assay: soluble on expression in E. coli; label from the status in PepcDB or PDB records

Row | Sequence | soluble on expression in E. coli
1 | MAEAKQWDVKQLDRIVEKMIDTVQHSKDEIFRIGEQSRQEHDHLLRELEEVKRLTVQAIEEADQLEMKARQARRRLSEVSQNFSTHSEQDIREAYEQAHELHMKLTMVREREKQLRLRRDELERRLASLAQIIERADYLVGQITVVLHYLNSDFRQVGELIEGAKQKQEFGLKIIEAQEEERRRLSREIHDGPAQLLAHVLLRSDLVEKVIKERGTEAAIAEIRDFRKMVRSALSEVRRIIYDLRPMALDDLGLVPTLKKYLQTTEEYNKGVHISFVHIGEEIRLPSRMEAAVFRLVQESVQNALKHAEARHIDVKMEVTCDHLLVSVKDDGKGFDPSVKKENAFGLIGMRERVELLGGTLDIRSKIGSGTTVFIRVPLDRSTDKTNKEERKR | not soluble
2 | MGSDKIHHHHHHMNDYDNNSNINEDAWNKETYSAWVKRFGTPDTAAKKISKDPSKILSVLHEKLGDVKGKKIMNIMGSNGSKAVALALLGADVTVVDFSKGNMDYALDLAKEADVKIDYILSDILKLPEDKLTADYDIVFAEMGIIHYFIDLKPFIKTINRLLKEGGLFVLRDFHPVSTKLITSRGSTAKVRKHKVTGDYFDTSLEEKDAAFSKYLIDNKEPEKVLLRKWTLGEIVTSVAEGGFKIKKLDEEPNLSCDNFDKGIPKSFTLTSEKLS | not soluble
3 | QLVLVKRSTPPVAVIWSAPDCPYCRKLEKTLEQENASVYVVPVGVAENGFRQAARVYCADDPSQAWRKVMQGSEINGRAKTSCQYPRDMLNDIGFFLGMGRMATPIVVFADGSTVIGWNDQNAWMLLRKKISEQIFFND | not soluble
4 | MSLEQYFKRFLGEENAYFDEIHKRAYSYDATKKHYLPDGVLFPRNEEDIARILKFCNENNIIVIPRGSGSGFTGGALAVNGGVVLAFEKHMNKILEIDLENLVAVVQPGVINIHLQKEVAKYGLFYPPDPASMEYSSLGGNVSENAGGMRAAKYGITKDYVMALRAVLPSGEIIRAGKRTIKDVAGYNLAGILIASEGSLAVLSELTLKLIPLPKFKKTAFAIFPSVKSAMNAVYKSLASGVSPVSMEFLDNLSIRAVESKFNKGLPIEAGAILIADVDGNVKEAIDEDLRNLEHYFLEAGASEFKIAKDEQETADIWFARRNCSQSIAMYGTLKLNEDITVPRSKLPTLLEGIDEISKKYGFKIPCFGHTGDGNVHTNVMVPDKNDKEQVKKGYEAVEEIFKLTVKLGGTLSGEHGIGLSKAPFMNLAFSEAEMNLMRNIKKAFDPNNILNPFKMGLEGHHHHHH | soluble
5 | SNAMILIDGKSLSKDLKERLATQVQEYKHHTAITPKLVAIIVGNDPASKTYVASKEKACAQVGIDSQVITLPEHTTESELLELIDQLNNDSSVHAILVQLPLPAHINKNNVIYSIKPEKDVDGFHPTNVGRLQLRDKKCLESCTPKGIMTMLREYGIKTEGAYAVVVGASNVVGKPVSQLLLNAKATVTTCHRFTTDLKSHTTKADILIVAVGKPNFITADMVKEGAVVIDVGINHVDGKIVGDVDFAAVKDKVAAITPVPGGVGPMTITELLYNTFQCAQELNR | soluble
6 | MSLQKNNLHIIIAEDDFDDADMICETFNQNPNFGKVSLVANGEELLNYLKNASNESPDVILTDINMPIVDGIEALQQILNNSDLKNIPCFVYSTSINPSYKEKCDDLGVKAYLIKPYSFEAFAEIPKTILSIIQAEGHHHHHH | soluble
7 | MLRRDFLKLLAAATTIAATGPVMAACSRDDNSATSGKAATDTIRIAAIGGPGEGLNINEAMSTATWAAMYAVYESLVIAGDSAPAFQLAKSVEPNKDATMWTVTLRDAPLFSDGSPVTAADVVASLKVVAKNPMRGMTYADVDVDKLKAIDDSTVEIHLTRPRADFVDAVLGVNSLVYKNGDPGTTIGSGPYVVESGDSGQGWKLAANEHFPTDRRISQSLEIQVIADADARLRAVDSGAVDLAMDLPATAARSLKNAQAWIPGPADSKALLFVLNTAVAPFNDAEVRRAVKISLDRKAMVDVALDGAGTVGADIPGFGFKDYPEGISEVRRDLDAARQIFKDKGIKELTLVTADFTPGMNDGADIAAKQLADAGVKVTVEKRDPTTYFADMAALRALPFFASYIVNRSLQSALPFMTGSHAMFNLSGFGTSGDWDKRLAAAQAETNDSQRAALLKKLAVEMQRDGGDVLWGYANEVHGRADGIPDVPVSQSVPVPTTK | not soluble
8 | MGSDKIHHHHHHMNPLDLIAKRAYPYETEKRDKTYLALNENPFPFPEDLVDEVFRRLNSDALRIYYDSPDEELIEKILSYLDTDFLSKNNVSVGNGADEIIYVMMLMFDRSVFFPPTYSCYRIFAKAVGAKFLEVPLTKDLRIPEVNVGEGDVVFIPNPNNPTGHVFEREEIERILKTGAFVALDEAYYEFHGESYVDFLKKYENLAVIRTFSKAFSLAAQRVGYVVASEKFIDAYNRVRLPFNVSYVSQMFAKVALDHREIFEERTKFIVEERERMKSALREMGYRITDSRGNFVFVFMEKEEKERLLEHLRTKNVAVRSFREGVRITIGKREENDMILRELEVFK | soluble
9 | MTDARTTVVVITHNRCAEVLRTLDRLAELPERPAVIVTDNGSTDGTAAAVARHHPGVRLLRSGRNLGAVGRNLAVRQVTTPYVAFCDDDSWWAPGSLSGAADLLDRYPAVGSVTARILVEPEGTEDPIVEELRDSPVPRPDWLPGPALGSFLAAATVLRTDAFRAAGGFHPRLWLGGEEELLAADLAANGWWLTYAGQLTIHHHPSGVRDSTVRRSHGIRNTLWFTWLRRPVGPALRRTLHLARTVPRDTASLRAFAEATAALPWVLRERRVLPPEVEARLRALEPAQRDSTARSYTGLEHHHHHH | not soluble
10 | MIKYSIRGENLEVTEAIRDYVVSKLEKIEKYFQPEQELDARINLKVYREKTAKVEVTIPLGSITLRAEDVSQDMYGSIDLVTDKIERQIRKNKTKIERKNKNKVATGQLFTDALVEDSNIVQSKVVRSKQIDLKPMDLEEAILQMDLLGHDFFIYVDVEDQTTNVIYRREDGEIGLLEVKESAAALEHHHHHH | soluble
11 | MGSDKIHHHHHHSSCGNDESDPDSTVTIAMATVEKQPQYDAPYLVLDNGEKLWVVQHIVPYRDLKAGERIFGNYSFLEAGESGFAYNIRLNDYTLVPVQKIIGLNPDNMDSIGNMKVQIKDMWPSDDYLNVRFMLNFPSPQKPILNLVVNEMIPWTKDGYAHLELRYNNNGSQGRLVPGMVSFKLDDYSPENSELKGIKVLVNPVDGEEKTYIFSYPLTGEDVPGFNPLDLAELK | not soluble
12 | MVCDFSQVRLRLADDGWRGTTTRREKDDAEDVEGKVTLRLRYTKTGAMRFLSHLEMIGLFTRAVGRSRIPIRFSRGFHPHPKFSFATALSVGVESWAEYLDMELFPGADPTDIGTRLNGALPEGVRIVEASVIPPGSPSLSVIMDKVRYRVTLPPEAAVGLPELAAAFLARESVPLRREKKGRVLEHHHHHH | not soluble
13 | MGHHHHHHSHMACAEFSFHVPSLEELAGVMQKGLKDNFADVQVSVVDCPDLTKEPFTFPVKGICGKTRIAEVGGVPYLLPLVNQKKVYDLNKIAKEIKLPGAFILGAGAGPFQTLGFNSEFMPVIQTESEHKPPVNGSYFAHVNPADGGCLLEKYSEKCHDFQCALLANLFASEGQPGKVIEVKAKRRTGPLNFVTCMRETLEKHYGNKPIGMGGTFIIQKGKVKSHIMPAEFSSCPLNSDEEVNKWLHFYEMKAPLVCLPVFVSRDPGFDLRLEHTHFFSRHGEGGHYHYDTTPDIVEYLGYFLPAEFLYRIDQPKETHSIGRD | soluble
14 | MGSDKIHHHHHHMSLRPYREIARRKSRQIHVGSVAVGGDAPISVQTMTNTLTTDVKGTLEQIRRAADAGADLVRVSCPDEDSTKAFKQIAKESPVPLIADIHFHYKRGIEAAEAGAACLRINPGNIGSHERVREVVKAAKDHGCSMRIGVNAGSLDKHLLDKYGEPCPEALVESALEHAKLLEDNDFFEFKIAVKASDVFLAVAAYQGLAKACDYPLHLGITEAGGLIGGTVKSSIGIGSLLWQGIGDTLRVSLSADVTEEVKVGFEMLKALDLRHRGVRIVSCPSCARQGFDVIKTVETLENRLSHVRAPVTLSILGCVVNGPGEARETMVGITGGGSDNHKVYIGGSPDHNVDGKSMVDHIVELVEARAAEIEAAKAGGK | not soluble
15 | MGSDKIHHHHHHGASEVMWKDFRNEKTIDTVYLGSSFSQVTFNPYIIDEKLGWKSFNMGTPAQPLDQSYVALQNAIKEKKIKRAVLAYGIPTMEDTQNDNARITFAHAMKYGCSWKQKVKMDWDFITDKENINTESSINYLFPWISNSIEWTKTAIENNIKLKKHNNDATENMKTTEWYASYIGKGYAPILTGGFDYKNAITDNTKANYNCIISETAYCKLEKICRLCKDNEVEFIIVNTPKAPYDISMYGADEYFAINSRIEEICTKYGFSYYDFNLIKPQIFQICPEYLNNYEHLSKAGSEAFCNAFSNFIRLHDSGECMTNYFYNEEEYLDSVKDIVQCIKE | not soluble
16 | MSGARRDNRRSNGRDDSSRVAKAENDRKPGRENRGGDEKRGNSNNAARSGGGGGGNRGGAERGIAPAQQPYDNNGGHRSGGGGGRSGGGGTSFNGAAFTESQLMDEVPKKKFTGRCRLFVGNLPNEVKETELKELFSPHGDIAECYLSGKGFAFLRLDTRAHAESAKEAIDGRIIHGRQVRVRFAVHGAAIRVKELSPTVSNEMLYHAFSHFGDVERAVHIVDEKGRPTGEGIVEFERKPNCNEAMAAIRDKVFLLTASPKPLICEVLEPRDEDDGLAERMIPRTPGLSKERELGPRFPTPNSFEYVYGMKWKELYVVEQKRRAQLDEELRESRRRLESDMELAYQDYQAQMLREDLQRRQQELERLEAARRERMRGLGGPPPGMPGGVPPQAQPFNPHGGSMFGGPGGPGGPPPFGQPFQQAPQGMFNVPTGPPPLMGGGGDPRGPPGGMGGPPGHGGMGGPPGHGGQGGPPGHGGMGGPPPGQGGPGVRETWRSWRNASKSHGRSNMIEGVQRLLQIFKSDNGPPGGMPGRDYPPQQGPGGMFGSYGDGGYPPEKKQRR | not soluble
17 | RADEQAFLVALYKYMKERKTPIERIPYLGFKQINLWTMFQAAQKLGGYETITARRQWKHIYDELGGNPGSTSAATCTRRHYERLILPYERFIKGEEDKPLPPIKPRK | soluble
18 | MIGYFIITGFAAATLALSTCNLKKVRKPPPATPAKPPAPQKTLKVAPRAAPPRKKKEIFLEEHTPPSTDTDEVSTIPPAEQIRIVENHRRRIGVRPRAGNRVYKKTPSSELVKVENKKSVEKNCKVVKTESGEAEACEKKEDKRNVEKNKKKEKESKEKSKNCYEKKELKKNGSESYAYKKYNKQKNEHIEILVKKTVLRQIRF | not soluble
19 | MSLILESLVTTLDEQGRINLAPLGPIVLPPQSPGGLPQFLLRPYEGSTTCDNLLASGNAVIHVIDDALLIAKTAIGKVDASDLVVPIPGLEDTHVRLKRCHRWFAVRVTQRAGTPPRHELTARCLASGLVDPFFGFNRAKHAVIEAAVAATRLHLLPPEEIEEELERARIAIEKTGGEPEREALQLIRRHVRESSISEGHHHHHH | soluble
20 | MSKFNLGIAKAGKTVNNEGAIAYSMSDKEKLVTQVLTSFFNENKFYGDNSQDILNTVRNVIKNEAAFVANLCIFARKEMHLRTISHVLVSELAKSTEGKEYVRRTLNEIIERPDDMTEVLAYYINTYGKPIPNSIKKGLADSFGKFDEYQLAKYNRKNAVKLKDILCLVHPKAKDEIQNDLWKRLLEDRLETPVTWETELSLKGNTKEVWERLIDENRLGYMAMMRNLRNIIKSGASNMDKVYEYLTDEERVLKNKQLPFRYYSAYKVLRNEGIGTSKIYDALEIAIKISTKNIDRLPGKTLIAADVSGSMNFPVSAKSDLTCAEVAVLMLSIANYICEESITMTFDDNLYACNLSTQNGIIANANSIKVNGGGTDITLPLRYLLDKRIFVDRIILLSDNEINAVYTYDTGRDKPKTCQALVERYKKWINPNVWVHAIDMQGYGTQQFKGQNVNIIAGWSERVFDFISSVEQGIDTLIGKISGYYFK | soluble
